Laboratory results published in PMC7337384.

Target: SARS-CoV-2 S-protein receptor-binding domain fused to the Fc domain of human IgG1 (SARS-CoV-2) (UniProt P0DTC2)
Test: SPR

soluble monomeric R. macrotis ACE2 (domain or fragment)
Kd: 4.6 µM
